Patent publication US20180230214A1

Biological target: biotinylated soluble human CD56 (human) (UniProt P13591)
Assay: flow cytometry of 56-28z-LNGFR transduced T cells stained with biotinylated soluble human CD56 (y axis 'sCD56 binding') against LNGFR (x axis). The other quadrants of this panel read 0.56 (upper left), 41.8 (lower left) and 33.1 (lower right). The sCD56 signal rises with LNGFR to about 10^3. The untransduced T cell control panel reads 0.57 (upper left), 0.27 (upper right), 97.6 (lower left) and 1.61 (lower right).

Substance: 56-28z CAR (scFv of murine anti-human CD56 antibody N901 fused to CD28/CD3z domains)
- quadrant number, cells positive for sCD56 binding and for LNGFR (upper right quadrant): 24.5%
